Laboratory results as given in publication PMC7807754, “A novel protein encoded by circular SMO RNA is essential for Hedgehog signaling activation and glioblastoma tumorigenicity” (Genome Biology, 2021).

Target: T1, 6xHis-SMO (human, UniProt Q99835 28-787)
T1 construct: smoothened (SMO), human; The plasmid for the 6xHis-tagged protein is not described; source: 293T, transfected, purified (HisPur Ni-NTA Purification Kit)
Test: co-IP; in vitro IP with proteins purified from 293T: GFP or GFP-193a.a. incubated with 6xHis-SMO for 4 h at 4 °C, immunoprecipitation overnight at 4 °C, protein A/G agarose, washed with PBST 5 times, western blotting
Details: both partners purified

T1 sequence (Q99835 28-787): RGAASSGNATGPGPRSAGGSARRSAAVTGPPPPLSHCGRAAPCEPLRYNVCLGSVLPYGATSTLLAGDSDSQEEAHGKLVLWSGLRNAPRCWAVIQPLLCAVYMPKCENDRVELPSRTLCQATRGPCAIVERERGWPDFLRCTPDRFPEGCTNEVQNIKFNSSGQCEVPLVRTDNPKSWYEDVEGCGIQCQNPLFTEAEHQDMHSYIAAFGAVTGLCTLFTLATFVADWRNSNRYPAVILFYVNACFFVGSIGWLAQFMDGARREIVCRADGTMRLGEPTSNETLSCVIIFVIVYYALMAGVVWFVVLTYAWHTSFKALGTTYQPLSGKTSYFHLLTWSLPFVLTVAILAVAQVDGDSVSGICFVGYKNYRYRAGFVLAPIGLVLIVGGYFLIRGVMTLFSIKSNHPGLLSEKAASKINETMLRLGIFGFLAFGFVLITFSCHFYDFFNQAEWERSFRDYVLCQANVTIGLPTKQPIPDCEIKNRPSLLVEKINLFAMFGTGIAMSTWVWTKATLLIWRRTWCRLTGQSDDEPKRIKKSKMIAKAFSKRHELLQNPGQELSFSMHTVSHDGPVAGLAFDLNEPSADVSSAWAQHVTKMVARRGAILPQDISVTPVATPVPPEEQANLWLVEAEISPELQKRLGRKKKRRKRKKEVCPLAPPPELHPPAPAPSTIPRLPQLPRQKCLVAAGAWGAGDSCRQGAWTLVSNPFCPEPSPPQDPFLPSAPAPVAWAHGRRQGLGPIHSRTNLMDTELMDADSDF

- binding result: binds
B1: GFP-SMO-193a.a. (natural protein, human)
chain: MHSYIAAFGAVTGLCTLFTLATFVADWRNSNRYPAVILFYVNACFFVGSIGWLAQFMDGARREIVCRADGTMRLGEPTSNETLSCVIIFVIVYYALMAGVVWFVVLTYAWHTSFKALGTTYQPLSGKTSYFHLLTWSLPFVLTVAILAVAQVDGDSVSGICFVGYKNYRYRAGFVLAPIGLVLIVGGYFLIRE
notes: SMO (smoothened), human, amino acids 230-421; the open reading frame of circ-SMO; extra Glu at the C-terminal, not part of linear SMO; The plasmid for the GFP-tagged protein is not described; source: 293T, transfected, purified (anti-GFP antibody, Catch and Release v2.0 Reversible Immunoprecipitation System)
